In US10752675B2, “Compounds for treating the remyelination blockade in diseases associated with the expression of HERV-W envelope protein” (GENEURO S.A., priority 2012, dated 2020):
Entries after “also recorded” stand apart in the source; their conditions may differ.

What was measured:
[1] = test system: MSRV-Env induced EAE in C57BL/6 mice; experiment: EAE clinical score with intravenous MSRV-Env challenge, Example 3.B; type: in vivo
From the text: (§1) Animals were weighed and clinically scored 5 days per week according to the following criteria: 0=no signs; 1=tail paralysis or hyper-reflex of hind limb(s) or unilateral hind limb weakness; 2=bilateral hind limb or forelimb weakness; 3=plus unilateral paralysis or major deficit; 4=complete hind limb or forelimb paralysis; 5=plus partial paralysis or major deficit of opposite limbs; 6=moribund or dead. These were adapted from standard criteria, in order to reflect the more rapid induction of brain and cervical cord lesions with this model.
When not specified, all materials and methods were as described for Example 3A.
All mice received three injections s.c. on the neck at DO, on the dorsal flank at D7 and D14. Here, mice from Group A were injected with 200 μg/mouse of MOG and IFA only, without Env, thus constituting a negative control group without EAE in the present series (ctrl −). The positive control group with untretated EAE in the present series is represented by Group B (ctrl +). Other groups were injected with 200 μg of MOG/mouse+MSRV-ENV (60 μg)+IFA, with treatments as indicated in the above summarized presentation. […]
For Groups G and H receiving DMF, we have previously determined the volume of daily water consumption by each mouse and it has been realized that (in our condition), each mouse consumed around 3.5 ml drinking water per day. […]

[2] = Weight gain kinetics, Example 3.B; type: in vivo, mice
Procedure: Mice were weighed 3 times a week on Monday, Wednesday and Friday during all experiment.
All mice received three injections s.c. on the neck at DO, on the dorsal flank at D7 and D14. Here, mice from Group A were injected with 200 μg/mouse of MOG and IFA only, without Env, thus constituting a negative control group without EAE in the present series (ctrl −). The positive control group with untretated EAE in the present series is represented by Group B (ctrl +). Other groups were injected with 200 μg of MOG/mouse+MSRV-ENV (60 μg)+IFA, with treatments as indicated in the above summarized presentation. Treatments have been initiated on day 12 post immunization in their corresponding groups.
The clinical signs score and weight were evaluated regularly as described above. The EAE clinical score kinetics over the study period are represented in FIGS. 22, 23 and 24. The weight curves, indicating relative weight gain compared to the day before first injection of immunogens, are presented in FIGS. 25, 26 and 27.

[3] = test system: MSRV-Env induced EAE in C57BL/6 mice; experiment: EAE clinical score, Example 3.A (EAE induced with MOG and MSRV-Env); type: in vivo; details: treatment from day 12 to day 29: GNbAc1 200 μg once, L-NAME 600 μg IP and SMT 1 mg IP every 4 days, DMF 1 mg daily in drinking water
From the text: Pathogen free female C57BL/6 nice (6-8 weeks old) were purchased from the Charles River laboratories and maintained at the animal facilities for one week before immunization. One day before immunization, all mice have been weighed, and then evaluated on the Rotarod Test. Rotarod:
as §1
All groups of 6 (six) mice have been first injected s.c. in the neck on day 0 then in the dorsal flanks on day 7 and 14; with 200 μg of MOG/mouse+60 μg of MSRV-Env+IFA.
For Groups G to H, the treatments with GNbAc1, L-NAME, SMT and DMF alone or together with GNbAc1 with the doses indicated below, have been initiated on day 12 post immunization when the progression of EAE clinical symptoms was already observed. GNbAc1 humanized antibody was administered once, but L-Name or SMT was administered every 4 days until termination of the study on day 29. Regarding Groups E and H, attributed for the treatment with DMF, we have previously determined the volume of daily water consumption by each mouse and it has been determined that (in our condition), each mouse consumed around 3.5 ml drinking water per day. Thus, on the basis of this measurement, a dose of 1 mg DMF+0.08% Methocel per mouse were added to 3.5 ml drinking water daily.
350 ng of pertussis toxin (PTX) per animal was injected (i.p.) in all groups on the same day following each immunogen injection, and replicated 2 days later, as usual in EAE protocols in order to facilitate the migration lymphocytes through the blood-brain barrier.

B1: GNbAC1: recombinant humanized anti-Env IgG4 monoclonal antibody comprising the CDRs of SEQ ID No. 1 to 6 (antibody, chains of the INN, looked up, V domains shown)
VH: QVQLVQSGAEVKKPGSSVKVSCKASGYTFTDYEMHWVRQAPGQGLEWIGAVAPETGGTAYNQKFKGRATITADKSTSTAYMELSSLRSEDTAVYYCTSTVVPFAYWGQGTLVTVSS
VL: QIQLTQSPSSLSASVGDRVTITCSASSSVSYMYWYQQKPGKAPKAWIYRTSNLASGVPSRFSGSGSGTDYTLTISSLQPEDFATYYCQQYQSLPLTFGGGTKVEIK
EAE clinical score after iv MSRV-Env challenge (20 μg) ([1]; GNbAC1 200 μg at day 12, alone or with SMT (I.P. twice a week) or DMF (2 mg daily in drinking water)): transient clinical impairment
EAE clinical score after iv MSRV-Env challenge (20 μg) ([1]; GNbAC1 500 μg at day 12, alone or with SMT or DMF (2 mg daily in drinking water)): very efficient in conferring resistance; also recorded: best clinical efficiency
weight gain over the study period, endpoint ([2]; GNbAC1 200 μg): endpoints equivalent to mock-controls
weight gain over the study period, endpoint ([2]; GNbAC1 500 μg, alone or with DMF): best endpoint; also recorded: positive effect on the global health
EAE clinical score kinetics and recovery [3]: improve after its injection
EAE clinical score kinetics and recovery ([3]; listed as GNbAc1): diminished slightly
